Blank lines part the entries; values can stand above or below the binder they belong to.
Legend:
cancer/testis antigen 1A = biological target: T1, cancer/testis antigen 1A (human, UniProt P78358 1-180)
T1 construct: also called CTAG1A

phosducin like = biological target: T2, phosducin like (human, UniProt Q13371 2-301)
T2 construct: also called PDCL
T2 sequence: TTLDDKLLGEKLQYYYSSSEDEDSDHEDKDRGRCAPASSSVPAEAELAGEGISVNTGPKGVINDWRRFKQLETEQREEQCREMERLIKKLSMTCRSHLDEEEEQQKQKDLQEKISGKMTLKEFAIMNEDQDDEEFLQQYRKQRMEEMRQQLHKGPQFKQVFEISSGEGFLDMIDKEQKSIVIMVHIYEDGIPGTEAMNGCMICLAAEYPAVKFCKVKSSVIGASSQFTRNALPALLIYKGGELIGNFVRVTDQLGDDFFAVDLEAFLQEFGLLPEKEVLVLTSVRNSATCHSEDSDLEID

[1] = biological target: T3, proliferating cell nuclear antigen, transcript variant 1 (human, UniProt P12004 1-261)
T3 construct: also called PCNA
T3 sequence (P12004 whole entry, change not shown): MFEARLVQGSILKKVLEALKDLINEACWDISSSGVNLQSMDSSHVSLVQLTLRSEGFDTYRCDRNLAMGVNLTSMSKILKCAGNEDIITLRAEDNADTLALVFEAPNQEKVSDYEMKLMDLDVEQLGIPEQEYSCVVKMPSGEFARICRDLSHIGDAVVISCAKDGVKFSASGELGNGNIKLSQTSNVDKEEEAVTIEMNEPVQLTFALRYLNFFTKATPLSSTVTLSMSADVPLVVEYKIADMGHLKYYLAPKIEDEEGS

[2] = biological target: T4, acyl-CoA binding domain containing 6 (human, UniProt Q9BR61 1-282)
T4 construct: also called ACBD6
T4 sequence: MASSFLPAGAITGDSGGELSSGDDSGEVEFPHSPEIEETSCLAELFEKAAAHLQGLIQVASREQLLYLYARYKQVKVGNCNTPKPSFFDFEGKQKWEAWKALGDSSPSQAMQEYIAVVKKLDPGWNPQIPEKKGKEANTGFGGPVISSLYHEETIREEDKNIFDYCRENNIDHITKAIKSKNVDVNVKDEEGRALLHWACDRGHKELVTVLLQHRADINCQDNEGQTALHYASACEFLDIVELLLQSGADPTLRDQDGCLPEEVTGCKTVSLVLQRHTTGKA

G antigen 2A = biological target: T5, G antigen 2A (human, UniProt Q6NT46 1-116)
T5 construct: also called GAGE2A
T5 sequence: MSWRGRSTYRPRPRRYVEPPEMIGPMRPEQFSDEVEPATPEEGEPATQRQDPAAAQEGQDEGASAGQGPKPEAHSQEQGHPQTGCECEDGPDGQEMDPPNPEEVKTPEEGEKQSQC

[3] = biological target: BAF chromatin remodeling complex subunit BCL7C, transcript variant 2 (human, UniProt Q8WUZ0 1-217)
[4] = biological target: T6, aarF domain containing kinase 5 (human, UniProt Q3MIX3 1-580)
T6 construct: also called ADCK5
T6 sequence (Q3MIX3 other isoform, or with tags, fused parts or gaps limits assumed): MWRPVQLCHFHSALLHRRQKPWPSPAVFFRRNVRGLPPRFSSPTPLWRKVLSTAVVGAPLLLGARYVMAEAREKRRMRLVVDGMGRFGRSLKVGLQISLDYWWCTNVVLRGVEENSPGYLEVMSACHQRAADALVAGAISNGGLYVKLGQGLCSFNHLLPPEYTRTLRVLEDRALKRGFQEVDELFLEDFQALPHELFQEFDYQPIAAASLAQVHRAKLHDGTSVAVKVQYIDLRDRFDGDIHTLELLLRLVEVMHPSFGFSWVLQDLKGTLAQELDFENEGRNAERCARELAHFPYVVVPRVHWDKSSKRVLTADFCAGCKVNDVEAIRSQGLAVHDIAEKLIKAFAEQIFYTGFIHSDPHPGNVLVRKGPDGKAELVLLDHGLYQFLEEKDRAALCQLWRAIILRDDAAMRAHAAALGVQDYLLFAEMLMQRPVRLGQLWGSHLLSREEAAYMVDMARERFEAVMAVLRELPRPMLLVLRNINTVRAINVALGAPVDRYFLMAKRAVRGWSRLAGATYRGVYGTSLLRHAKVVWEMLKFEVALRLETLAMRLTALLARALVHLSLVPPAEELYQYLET

[5] = biological target: T7, G protein-coupled receptor 4 (human, UniProt P46093 1-362)
T7 construct: also called GPR4
T7 sequence (P46093 whole entry): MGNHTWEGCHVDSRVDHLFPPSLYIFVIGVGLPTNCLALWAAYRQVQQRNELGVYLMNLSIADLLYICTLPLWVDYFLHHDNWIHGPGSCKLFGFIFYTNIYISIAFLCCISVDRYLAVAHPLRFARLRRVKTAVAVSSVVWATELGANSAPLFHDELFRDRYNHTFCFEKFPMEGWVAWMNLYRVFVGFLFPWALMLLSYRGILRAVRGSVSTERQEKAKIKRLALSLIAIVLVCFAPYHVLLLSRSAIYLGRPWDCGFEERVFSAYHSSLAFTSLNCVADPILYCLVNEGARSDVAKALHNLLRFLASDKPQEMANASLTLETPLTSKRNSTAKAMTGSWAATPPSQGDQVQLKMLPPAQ

Dexd-box helicase 52 = biological target: T8, Dexd-box helicase 52 (human, UniProt Q9Y2R4 1-599)
T8 construct: also called DDX52
T8 sequence: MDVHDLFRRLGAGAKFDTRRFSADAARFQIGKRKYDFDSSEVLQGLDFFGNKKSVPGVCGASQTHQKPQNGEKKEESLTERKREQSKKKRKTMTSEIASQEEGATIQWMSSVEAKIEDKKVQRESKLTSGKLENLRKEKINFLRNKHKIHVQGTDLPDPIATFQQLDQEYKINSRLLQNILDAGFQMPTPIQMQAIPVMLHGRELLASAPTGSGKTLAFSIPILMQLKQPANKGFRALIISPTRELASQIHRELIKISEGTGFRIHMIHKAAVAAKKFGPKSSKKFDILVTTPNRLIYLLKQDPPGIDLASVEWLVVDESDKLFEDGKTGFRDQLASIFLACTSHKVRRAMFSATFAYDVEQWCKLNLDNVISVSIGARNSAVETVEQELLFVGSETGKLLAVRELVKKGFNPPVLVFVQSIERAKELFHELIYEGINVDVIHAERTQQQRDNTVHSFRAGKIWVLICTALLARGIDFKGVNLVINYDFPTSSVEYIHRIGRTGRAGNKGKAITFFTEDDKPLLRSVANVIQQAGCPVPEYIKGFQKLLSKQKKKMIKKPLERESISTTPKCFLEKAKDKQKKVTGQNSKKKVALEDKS

[6] = biological target: T9, zinc finger protein 326, transcript variant 1 (human, UniProt Q5BKZ1 1-582); experiment: protein array
T9 construct: on protein array; also called ZNF326
T9 sequence: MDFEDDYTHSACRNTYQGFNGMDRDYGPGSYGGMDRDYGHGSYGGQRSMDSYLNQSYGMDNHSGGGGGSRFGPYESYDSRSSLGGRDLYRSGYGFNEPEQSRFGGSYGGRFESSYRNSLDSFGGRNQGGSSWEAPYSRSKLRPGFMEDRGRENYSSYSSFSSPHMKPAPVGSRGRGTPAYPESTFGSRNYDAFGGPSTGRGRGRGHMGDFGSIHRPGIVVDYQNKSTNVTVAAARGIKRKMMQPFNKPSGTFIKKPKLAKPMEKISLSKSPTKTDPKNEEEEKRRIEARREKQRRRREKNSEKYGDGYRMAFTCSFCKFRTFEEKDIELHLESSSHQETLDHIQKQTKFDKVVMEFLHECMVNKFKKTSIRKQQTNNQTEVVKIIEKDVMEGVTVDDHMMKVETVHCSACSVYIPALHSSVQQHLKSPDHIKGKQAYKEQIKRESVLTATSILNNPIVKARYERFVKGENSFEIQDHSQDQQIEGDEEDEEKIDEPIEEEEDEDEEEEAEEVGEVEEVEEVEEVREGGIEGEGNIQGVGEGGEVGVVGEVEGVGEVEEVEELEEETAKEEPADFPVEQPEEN

[7] = biological target: T10, PNMA family member 5, transcript variant 2 (human, UniProt Q96PV4 1-448); experiment: protein array
T10 construct: on protein array; also called PNMA5
T10 sequence (Q96PV4 other isoform, or with tags, fused parts or gaps mutant limits assumed): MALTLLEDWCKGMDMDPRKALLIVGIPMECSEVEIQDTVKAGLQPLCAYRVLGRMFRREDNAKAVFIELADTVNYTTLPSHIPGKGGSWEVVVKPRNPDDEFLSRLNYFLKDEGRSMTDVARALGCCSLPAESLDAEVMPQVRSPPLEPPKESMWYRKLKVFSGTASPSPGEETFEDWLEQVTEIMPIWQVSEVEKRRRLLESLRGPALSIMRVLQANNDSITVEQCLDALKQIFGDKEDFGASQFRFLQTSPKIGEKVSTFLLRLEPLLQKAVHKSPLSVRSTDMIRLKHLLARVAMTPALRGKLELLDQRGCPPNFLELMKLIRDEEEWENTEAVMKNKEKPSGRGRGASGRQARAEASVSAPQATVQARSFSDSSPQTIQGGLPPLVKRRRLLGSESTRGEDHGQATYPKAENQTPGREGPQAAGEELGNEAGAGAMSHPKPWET

[8] = biological target: T11, phospholipase C delta 1, transcript variant 2 (human, UniProt P51178 1-756); experiment: protein array
T11 construct: on protein array; also called PLCD1
T11 sequence: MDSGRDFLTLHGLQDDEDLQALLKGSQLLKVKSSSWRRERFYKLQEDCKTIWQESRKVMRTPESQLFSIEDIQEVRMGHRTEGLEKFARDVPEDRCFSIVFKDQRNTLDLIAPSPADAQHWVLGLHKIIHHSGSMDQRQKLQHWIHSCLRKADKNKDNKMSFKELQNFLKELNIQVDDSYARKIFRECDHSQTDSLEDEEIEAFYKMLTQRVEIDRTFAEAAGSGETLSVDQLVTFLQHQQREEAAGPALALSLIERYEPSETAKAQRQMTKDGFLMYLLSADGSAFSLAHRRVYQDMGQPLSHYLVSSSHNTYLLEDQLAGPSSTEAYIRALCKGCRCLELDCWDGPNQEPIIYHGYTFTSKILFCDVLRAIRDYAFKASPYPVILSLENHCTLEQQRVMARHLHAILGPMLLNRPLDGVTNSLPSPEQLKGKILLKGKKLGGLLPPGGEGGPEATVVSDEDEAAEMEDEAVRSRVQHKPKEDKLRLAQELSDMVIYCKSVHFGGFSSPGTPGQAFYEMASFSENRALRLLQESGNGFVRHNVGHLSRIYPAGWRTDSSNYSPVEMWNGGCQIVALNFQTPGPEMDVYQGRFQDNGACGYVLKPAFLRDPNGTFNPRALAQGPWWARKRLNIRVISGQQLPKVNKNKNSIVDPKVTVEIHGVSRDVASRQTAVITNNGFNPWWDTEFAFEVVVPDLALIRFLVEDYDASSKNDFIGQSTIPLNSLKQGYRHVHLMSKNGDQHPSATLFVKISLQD

T1 sequence (P78358 whole entry): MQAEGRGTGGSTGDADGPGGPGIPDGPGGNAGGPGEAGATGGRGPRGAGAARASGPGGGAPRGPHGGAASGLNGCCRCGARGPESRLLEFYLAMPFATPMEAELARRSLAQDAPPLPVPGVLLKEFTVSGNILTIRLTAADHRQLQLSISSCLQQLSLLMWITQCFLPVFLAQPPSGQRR

B1: TTHY1004 (antibody, V domains shown)
VH: PVQLQESGPGLVKPSQTLSLTCTVSGGSISSGTYYWSWIRQPAGKGLEWIGRIYASGSTNYNPSLKSRVTISVDTSKNQFSLKLTSVTAADTAVYYCARYSGSYPLGFDYWGQGTLVTVSS
VL: DIQMTQSPSSLSASVGDRVTITCRASQSISTYLNWYQQKPGMAPKLLIYAASTLQSGVPSRFSGSGSATDYTLTISSLQPEDFATYYCQQSYNTPLTFGGGTKVDIKR
binding result (cancer/testis antigen 1A): binds

B2: TTES1007 (antibody, V domains shown)
VH: QITLKESGPTLVKPTQTLTLTCTFSGFSLTTTGVGVGWIRQPPGKALEWLALIYWDDDKRYSPSLKSRLIITKDTSKNQVVLTMTNMDPVDTATYYCAHRFGRGVSYYYYGMDVWGQGTTVTVSS
VL: not shown
binding result (phosducin like): binds

B3: TTHY1002 (antibody, V domains shown)
VH: EVQVVESGGGLGQPGGSLRLSCAASGFTFSSYSMNWVRQAPGKGLEWVSYISSSSSTKYYADSVKGRFTISRDNAKKSLYLQMNSLRDEDTAVYYCASPVRPWGQGTLVTVSS
VL: EIVMTQSPATLSVSPGERATLSCRASQSVSSNLAWYQQKPGQAPRLLIYGASTRATGIPARFSGSGSGTEFTLTISSLQSEDFAIYYCQQYNSWPAFGGGTKVEIK
binding result [1]: binds

B4: TTES1006 (antibody, V domains shown)
VH: EVQLVESGGGLVQPGGSLRLSCAASGFTFSKFWMHWVRQAPGKGLVWLSRINTDGTVTTYADSVKGRFTISRDNAKSTLYLQMNSLRVEDTAVYYCAGGGSQVDFWGQGTLVTVSS
VL: PYELTQPPSVSVSPGQTASIACSGDNLGNKYAWWYRQKPGQSPVLVMYKDNKRPSGIPERFSGSNSGNTATLTISGTQAMDEADYYCQTWDSSTVIFGGGTKLTVQ
binding result [2]: binds

B5: TTES1012 (antibody, V domains shown)
VH: EVQLVESGGGLVQPGGSLRLSCAASGFTFSSYWMTWVRQAPGKGLEWVANIKQDGSEKYYVDSVKGRFTISRDNSKNSLYLQMNSLRAEDTAVYYCARAGYDLFGWFDPWGQGTLVTVSS
VL: SYELTQPPSVSVSPGQTARITCSGDALPKQYAYWYQQKPGQAPVLVIYKDSERPSGIPERFSGSSSGTTVTLTISGVQAEDEADYYCQSADSSGTYVFGTGTKVTVLG
binding result (G antigen 2A): binds

B6: TTHY1003 (antibody, V domains shown)
VH: QVQLVQSGAEMKKPGTSVKVSCRTSGYIFTGSFMHWVRQAPAQGLEWMGWINPKTGATYYTEKFKGRVTLTRDTSINTAYMEMTSLRSDDTAVYYCARGFCDLPACYPVPQYNWFDPWGQGTLVTVSS
VL: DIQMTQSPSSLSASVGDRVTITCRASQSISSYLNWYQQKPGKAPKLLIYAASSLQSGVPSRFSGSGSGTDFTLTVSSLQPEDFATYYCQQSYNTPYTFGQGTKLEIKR
binding result [3]: binds

Further lines, results first:

binding result [4]: binds
B7: TTES1009 (antibody, V domains shown)
VH: EVQLVESGGGLVQPGGSLRLSCAASGFTFSSYEMNWVRQAPGKGLEWVSYISSSGSTIYYADSVKGRFTISRDNAKNSLYLQMNSLRAEDTAVYYCARRGFYYYYGMDVWGQGTTVTVSS
VL: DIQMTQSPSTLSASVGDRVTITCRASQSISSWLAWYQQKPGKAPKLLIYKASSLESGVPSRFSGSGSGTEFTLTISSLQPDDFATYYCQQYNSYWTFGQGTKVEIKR

binding result [5]: binds
binding result (Dexd-box helicase 52): binds
B8: TTES1008 (antibody, V domains shown)
VH: QVQLVESGGGVVQPGRSLRLSCAASGFIFSSYGMHWVRQAPGKGLEWVAVISYDGSNKYYADSVKGRFTISRDKSKNTLHLQMNSLRAEDTAVYYCAKDSGSNDDMDVWGKGTTVTVSS
VL: QSVLTQPPSVSAAPGQKVTISCSGSSSNIGNNYVSWYQQLPGTAPKLLIYDNNKRPSGIPDRFSGSKSGTSATLGITGLQTGDEADYYCGTWDSSLSAGVFGTGTKVTVLG

binding result [6]: binds
binding result [7]: binds
binding result [8]: binds
B9: TBRE1039 (antibody, V domains shown)
VH: PVQLVQSGAEVKKPGSSVKVSCKASGGTFSSYAISWVRQAPGQGLEWMGGIIPIFGTANYAQKFQGRVTITADESTSTAYMELSSLRSEDTAVYYCARENWNSAGTTEWFDPWGQGTLVTVSS
VL: PYVLTQPPSVSVAPGKTARITCGGNNIGSKSVHWYQQKPGQAPVLVIYYDSDRPSGIPERFSGSNSGNTATLTISRVEAGDEADYYCQVWDSSSDHYVVFGGGTKLTVLG
notes: VH/VL only

From patent US20220204643A1 (published 2022)
